One data set relates to biotinyl-Phe-oxazolone. The data set can be described thus: self-aminoacylation, catalytic enhancement (BFO) (fold over background); higher = more active; k-Seq, kA / k0A0; sequences stand for … in GGGAAUGGAUCCACAUCUACGAAUUC…UUCACUGCAGACUUGACGAAGCUG
An outline of the steps: (§1)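 Mutagenized RNA pools with a 21-nt variable region (0.43 μM) reacted with each biotinyl-aminoacyl-oxazolone at 2–1250 μM. Reactions ran in 50 μL HEPES/NaCl/KCl/MgCl2/CaCl2 buffer with 5% acetonitrile, pH 6.9–7.0, for 90 minutes at room temperature. Streptavidin-captured RNA was quantified by triplicate qPCR and Illumina sequencing, and per-sequence fraction reacted was fit to a pseudo-first-order model with 1000 bootstraps. Catalytic enhancement is median kA divided by the uncatalyzed rate, the low-activity peak of a bimodal Gaussian fit.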

Another data set has as its system biotinyl-Leu-oxazolone. The data set is described as follows: self-aminoacylation, catalytic enhancement (BLO) (fold over background); higher = more active; k-Seq, kA / k0A0; sequences stand for … in GGGAAUGGAUCCACAUCUACGAAUUC…UUCACUGCAGACUUGACGAAGCUG
An outline of the steps: as §1

The next data set concerns biotinyl-Met-oxazolone. The data set can be described thus: self-aminoacylation, catalytic enhancement (BMO) (fold over background); higher = more active; k-Seq, kA / k0A0; sequences stand for … in GGGAAUGGAUCCACAUCUACGAAUUC…UUCACUGCAGACUUGACGAAGCUG
An outline of the steps: as §1

The test system of the next data set is biotinyl-Trp-oxazolone. The data set is described as follows: self-aminoacylation, catalytic enhancement (BWO) (fold over background); higher = more active; k-Seq, kA / k0A0; sequences stand for … in GGGAAUGGAUCCACAUCUACGAAUUC…UUCACUGCAGACUUGACGAAGCUG
The method, boiled down:
as §1

Variants at the floor of the assay were thinned out.

Take “AAGCUUGCUAACAGUCGCAAG [Fam3.1 aminoacylation ribozyme variant]”: the self-aminoacylation in the data set on biotinyl-Phe-oxazolone came to 3.33; with biotinyl-Leu-oxazolone, 2.5; with biotinyl-Met-oxazolone, 2.4.
Turning to “AAGUGUGCUAAUAGUCGCGAG [Fam3.1 aminoacylation ribozyme variant]”, the self-aminoacylation with biotinyl-Leu-oxazolone is 2.47; in the data set on biotinyl-Trp-oxazolone, 2.41.
“AAGUUUGUUAAUAGUCGCAGG [Fam3.1 aminoacylation ribozyme variant]”: the self-aminoacylation in the data set on biotinyl-Phe-oxazolone was determined as 5.46; in the data set on biotinyl-Leu-oxazolone, 2.45; in the data set on biotinyl-Trp-oxazolone, 2.06.
For the sequence “AAUUUUGCUAAUAGUCGCAUG [Fam3.1 aminoacylation ribozyme variant]”, the self-aminoacylation in the data set on biotinyl-Phe-oxazolone was found to be 3.03; with biotinyl-Trp-oxazolone, 3.4; in the data set with biotinyl-Met-oxazolone it was 2.28.
“ACGUUUGCCAAUAGUCGCAAG [Fam3.1 aminoacylation ribozyme variant]”: the results for the self-aminoacylation in the data set on biotinyl-Phe-oxazolone, with biotinyl-Leu-oxazolone and in the data set with biotinyl-Met-oxazolone were 6.32, 2.16 and 2.04, respectively.
For “ACGUUUGCUAAUAGUCGCCAG [Fam3.1 aminoacylation ribozyme variant]”, the self-aminoacylation came to 2.03 in the data set on biotinyl-Phe-oxazolone, 2.59 in the data set with biotinyl-Trp-oxazolone and 2.26 in the data set on biotinyl-Met-oxazolone.
For “AGGUCUGCUAAUAGUCGCAAG [Fam3.1 aminoacylation ribozyme variant]”, in that order: 37, 9.95 and 2.08.
Turning to “AUCCACCUAGGUCAUAGGGUG [Fam2.2 aminoacylation ribozyme variant]”, the self-aminoacylation in the data set with biotinyl-Phe-oxazolone is 2.19; in the data set on biotinyl-Leu-oxazolone, 2.16; in the data set on biotinyl-Trp-oxazolone, 2.2.
“AUGACCCUGGUCAUCAAGUGA [Fam2.1 aminoacylation ribozyme variant]”: the self-aminoacylation turned out to be 2.74 in the data set on biotinyl-Phe-oxazolone, 2.28 with biotinyl-Leu-oxazolone, 2.06 in the data set with biotinyl-Trp-oxazolone and 2.4 with biotinyl-Met-oxazolone.
For “AUUAACCUAGAUCAUCGGGUG [Fam2.2 aminoacylation ribozyme variant]”, in that order: 14.9, 2.84, 2.54 and 2.81.
For “AUUACCCUGCUCUUCGAGUGA [Fam2.1 aminoacylation ribozyme variant]”, in that order: 2.38, 2.36, 2.72 and 2.02.
As to “AUUACCCUGGGCAUCGAGUGU [Fam2.1 aminoacylation ribozyme variant]”, the self-aminoacylation in the data set on biotinyl-Phe-oxazolone was found to be 2.53; with biotinyl-Trp-oxazolone, 2.31; in the data set with biotinyl-Met-oxazolone, 2.02.
On to “AUUACCCUGGGGAUCGAGUGA [Fam2.1 aminoacylation ribozyme variant]”, for which the self-aminoacylation in the data set on biotinyl-Phe-oxazolone worked out at 14.1; with biotinyl-Leu-oxazolone it was 3.34; in the data set on biotinyl-Trp-oxazolone it was 3.94; in the data set with biotinyl-Met-oxazolone it was 2.55.
For “AUUACCCUGGUACUCGAGUGA [Fam2.1 aminoacylation ribozyme variant]”, in that order: 10.3, 2.66, 3.35 and 2.66.
For “AUUACCCUGGUCAUCGAGAAA [Fam2.1 aminoacylation ribozyme variant]”, in that order: 5.05, 2.97, 2.58 and 2.8.
For “AUUACCCUGGUCGUGGAGUGA [Fam2.1 aminoacylation ribozyme variant]”, in that order: 12.3, 2.42, 2.5 and 2.19.
“AUUACCGUGCUCAUCGAGUGA [Fam2.1 aminoacylation ribozyme variant]”: the self-aminoacylation stood at 2.01 with biotinyl-Phe-oxazolone, 2.64 in the data set with biotinyl-Leu-oxazolone, 3.33 with biotinyl-Trp-oxazolone and 2.12 in the data set on biotinyl-Met-oxazolone.
Take “AUUACGCUGGUCAUCAAGUGA [Fam2.1 aminoacylation ribozyme variant]”: the self-aminoacylation is 2.38 with biotinyl-Phe-oxazolone, 2.55 in the data set on biotinyl-Leu-oxazolone, 3.76 with biotinyl-Trp-oxazolone and 2.63 in the data set with biotinyl-Met-oxazolone.
“AUUACUCUGGUCAUCGAGGGA [Fam2.1 aminoacylation ribozyme variant]”: the figures for the self-aminoacylation in the data set with biotinyl-Trp-oxazolone and with biotinyl-Met-oxazolone were 2.13 and 2.09, respectively.
For the sequence “AUUCAACUAGGUAAUCGGGUG [Fam2.2 aminoacylation ribozyme variant]”, the self-aminoacylation in the data set on biotinyl-Phe-oxazolone is 19; in the data set on biotinyl-Leu-oxazolone, 3.41; with biotinyl-Trp-oxazolone, 2.81; in the data set on biotinyl-Met-oxazolone, 2.72.
“AUUCACAUAGGUCAUCGGGGG [Fam2.2 aminoacylation ribozyme variant]”: the results for the self-aminoacylation in the data set on biotinyl-Trp-oxazolone and in the data set with biotinyl-Met-oxazolone were 2.66 and 2.28, respectively.
As for “AUUCACCAAGGUCAUAGGGUG [Fam2.2 aminoacylation ribozyme variant]”, the self-aminoacylation was found to be 9.85 in the data set with biotinyl-Phe-oxazolone, 4.37 in the data set on biotinyl-Leu-oxazolone, 2.2 with biotinyl-Trp-oxazolone and 2.48 in the data set with biotinyl-Met-oxazolone.
For the sequence “AUUCACCGAGGUCAUCGGGAG [Fam2.2 aminoacylation ribozyme variant]”, the values for the self-aminoacylation with biotinyl-Phe-oxazolone and in the data set on biotinyl-Met-oxazolone were 4.74 and 2.23, respectively.
As to “AUUCACCUACGUCAACGGGUG [Fam2.2 aminoacylation ribozyme variant]”, the self-aminoacylation with biotinyl-Phe-oxazolone came out at 9.97; with biotinyl-Leu-oxazolone, 3.09; in the data set on biotinyl-Trp-oxazolone it was 2.84; in the data set with biotinyl-Met-oxazolone, 2.35.
For “AUUCACCUACGUCAUCAGGUG [Fam2.2 aminoacylation ribozyme variant]”, in that order: 9.1, 2.86, 2.08 and 2.73.
On to “AUUCACCUAGAUCAUCGGGUA [Fam2.2 aminoacylation ribozyme variant]”, for which the values for the self-aminoacylation with biotinyl-Phe-oxazolone and with biotinyl-Met-oxazolone were 5.46 and 2.12, respectively.
As to “AUUCACCUAGGUAAUCUGGUG [Fam2.2 aminoacylation ribozyme variant]”, the self-aminoacylation in the data set with biotinyl-Phe-oxazolone came to 16.9; in the data set on biotinyl-Leu-oxazolone, 4.66; in the data set with biotinyl-Trp-oxazolone it was 3.62; in the data set with biotinyl-Met-oxazolone, 3.3.
For “AUUCACCUAGGUCAUCGGGAC [Fam2.2 aminoacylation ribozyme variant]”, in that order: 2.12, 3, 2.55 and 2.56.
Turning to “AUUUCCCUGGUCAUCAAGUGA [Fam2.1 aminoacylation ribozyme variant]”, the self-aminoacylation in the data set with biotinyl-Phe-oxazolone came to 2.51; in the data set on biotinyl-Leu-oxazolone, 2.2; with biotinyl-Trp-oxazolone, 2.88.
Consider “CAGCUUCAAACAAUCGGUCUG [Fam1A.1 aminoacylation ribozyme variant]”, for which the self-aminoacylation in the data set on biotinyl-Phe-oxazolone turned out to be 52; in the data set with biotinyl-Leu-oxazolone, 2.01; in the data set with biotinyl-Trp-oxazolone, 27.1.
For “CCACACUUCAAGCAAGCGGUG [Fam1B.1 aminoacylation ribozyme variant]”, the values for the self-aminoacylation with biotinyl-Leu-oxazolone, with biotinyl-Trp-oxazolone and in the data set with biotinyl-Met-oxazolone were 3.19, 2.4 and 2.45, respectively.
As for “CCACACUUCGAGCAAUCGGGC [Fam1B.1 aminoacylation ribozyme variant]”, the results for the self-aminoacylation with biotinyl-Phe-oxazolone and with biotinyl-Leu-oxazolone were 9.16 and 2.07, respectively.
For “CCACAGUUCAAGCAAUCGCUC [Fam1B.1 aminoacylation ribozyme variant]”, in that order: 2.03 and 2.43.
As for “CCACUUCAAUCAAUCGGUCUG [Fam1A.1 aminoacylation ribozyme variant]”, the self-aminoacylation was found to be 41.8 with biotinyl-Phe-oxazolone, 2.1 with biotinyl-Leu-oxazolone and 29.4 in the data set on biotinyl-Trp-oxazolone.
“CCCGACUUCAAGCAAUCGGUC [Fam1B.1 aminoacylation ribozyme variant]”: the self-aminoacylation in the data set on biotinyl-Phe-oxazolone is 91.8; in the data set on biotinyl-Leu-oxazolone, 2.85; with biotinyl-Trp-oxazolone, 47.6.
“CGACUUCAAACAAUCGGUUUG [Fam1A.1 aminoacylation ribozyme variant]”: the self-aminoacylation with biotinyl-Phe-oxazolone came out at 63.5; with biotinyl-Leu-oxazolone it was 2.33; in the data set with biotinyl-Trp-oxazolone, 32.7.
For “CUGUUUCAAACAAUCGGUCUG [Fam1A.1 aminoacylation ribozyme variant]”, in that order: 96.2, 2.48 and 38.4.
For “UAACUUCAAACAAUCGGUCUG [Fam1A.1 aminoacylation ribozyme variant]”, in that order: 55.3, 2.04 and 27.1.
In the case of “UCACUUCAAACAAUCGGUCUG [Fam1A.1 aminoacylation ribozyme variant]”, the self-aminoacylation with biotinyl-Phe-oxazolone was 70.7; in the data set on biotinyl-Leu-oxazolone, 2.11; in the data set on biotinyl-Trp-oxazolone it was 35.1.

For the origin of these results see the supplement of paper PMC9233669.
